Tested on: MS2 coat protein
Assay: apparent KD of MS2 coat protein; designed switch direction (-1 OFF switch, 1 ON switch): -1; higher = weaker reporter binding
Outline: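 The apparent KD reported per design is the median over clusters of curve fits to normalised cluster fluorescence. The RNA switches were transcribed on Illumina chips by stalled E. coli RNA polymerase. SNAP-549-labelled MS2 coat protein was titrated from 0.7 or 1.5 nM, doubling up to 3 µM, in Tris-HCl pH 7.5 buffer containing KCl, MgCl2, BSA, DTT, tRNA and Tween-20, with no input, 200 uM small-molecule ligand, or an oligonucleotide input.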

[1] = Eterna round: R95, input ligand: FMN 200 uM
[2] = Eterna round: R95, input ligand: microRNA oligo, concentration not stated
[3] = Eterna round: R95, input ligand: none
[4] = input ligand: microRNA oligo, concentration not stated

| Sequence | apparent KD of MS2 coat protein [1] | apparent KD of MS2 coat protein [2] | apparent KD of MS2 coat protein [3] | apparent KD of MS2 coat protein (input ligand: FMN 200 uM) | apparent KD of MS2 coat protein (input ligand: none) | apparent KD of MS2 coat protein [4] |
| --- | --- | --- | --- | --- | --- | --- |
| AUUUAAACAUAGGAUAUCGAAUUUAUCAUUUAACGAGAAGGAUGAACAUGAGGAUCACCCAUGUGGUAUCAUGG [Mat - Exclusion 6 - JL Mod - D4] (puzzle: Exclusion 6) | 398 nM | 279 nM | 368 nM |  |  |  |
| AUUUAACAUGAGGAUCACCCAUGUGAGGAUAUGCGAGUAUAGACUUCGGUCUGAUAGAGCAGAAGGCGCAGAUA [EX1 #8] (Eterna round: R97, puzzle: Exclusion 1) |  |  |  | 67.7 nM | 55.9 nM |  |
| AUUUAGAGAGGAUAUAUAUUUUAAAACAUGAGGAUCACCCAUGUAAUUUUAUGGGAGUAAAUAGAAGGCUCAUUUA [JMFs Solution 2] (puzzle: Exclusion 5) | 54.3 nM | 52.8 nM | 53.1 nM |  |  |  |
| AUUUAGCAAGUCAGAUCCUACAUGAGGAUCACCCAUGUUGUUCGUCUUAUUUGAAGACAACACAAAAGUGUUGUCUU [Omei Mir OFFv1 B5] (Eterna round: R97, puzzle: Sensor, turn-off variant 1) |  |  |  | 79.9 nM | 77 nM |  |
| AUUUAUGGAGGAUAUACUUGAGGAUCACCCAAGUGGAGUCCCGUUUGGGCGGUAAAUAGUAGAAGGCCGUCCUA [jl-ex3-4.47 ViennaUCT mod] (Eterna round: R97, puzzle: Exclusion 3) |  |  |  | 15.7 nM | 14.2 nM |  |
| AUUUUGUGAGGAUAUGUGGCUUCGAUCGUGAAAUCGAGGCUACAGAAGGCACAUGAGGAUCACCCAUGUUCCUA [salish99_ex4_r4_117] (Eterna round: R97, puzzle: Exclusion 4) |  |  |  | 178 nM | 19.6 nM |  |
| CAAAGAUAAGGAUAUUGAAGGUUCGACAUGAGGAUCACCCAUGUUAUGUUGGAAAAGGGACAAGAAGGUAUGAAAU [salish99_ex5_r4_213] (Eterna round: R97, puzzle: Exclusion 5) |  |  |  | 41.5 nM | 40.3 nM |  |
| CAAGUGUUAGGAUAUACCAGUUAAAUGCAGCUGCCGUCGGAGUAGAAGGGACAUGAGGAUCACCCAUGUCGGGA [Eternabot (L1) Solution 28] (Eterna round: R97, puzzle: Exclusion 4) |  |  |  | 46.1 nM | 35.1 nM |  |
| CAAUAACAAGCGAGAUCCUACAUGAGGAUCACCCAUGUGCUCGUCUUAUAAAGUACUAUCACGAAAGUGAUAGUACA [Mat - Sensor v3 - turn-off var 1 - Eli Mod - D63] (puzzle: Sensor v3, turn-off variant 1) | 19.6 nM | 34 nM | 14.9 nM |  |  |  |
| CAAUGACAUGAGGAUCACCCAUGUGAGGAUAUGGAGCGCGACCGCGCGGUCGCGUACACCAGAAGGCGCAGGAA [1st #69] (Eterna round: R97, puzzle: Exclusion 1) |  |  |  | 59.7 nM | 29.4 nM |  |
| CACCUACAUGAGGAUCACCCAUGUCAGGAUAUCUUUGCUAAUAUGAAUAGAUGCGUAAAGAGAAGGGACAUUUC [EX1 C.8] (Eterna round: R97, puzzle: Exclusion 1) |  |  |  | 27 nM | 14.9 nM |  |
| CAGAAACAUGAGGAUCACCCAUGUGAGGAUAUGCGUACGUUGUCCGUAGGCGACGUGCGCAGAAGGCGCAAAGG [Mat - Mod of JL D85] (puzzle: Exclusion 1) | 115 nM | 59.3 nM | 116 nM |  |  |  |
| CAGGAACCAGCAGGAUAUGUGCGGCUGCUAACGUGAACCAACAUGAGGAUCACCCAUGUAGGCACGCAGAAGGGCUCAGCCUGC [Orgevebe] (Eterna round: R96, puzzle: Exclusion NG 2) |  |  |  | 8.78 nM | 13.5 nM | 10.6 nM |
| CAGGUGUAAGGAUAUACCGGAUGGUCCAAAGCUUGGCAAAGACAUGAGGAUCACCCAUGUAGAAGGUACGUCCG [Eternabot (Original) Solution 21] (Eterna round: R97, puzzle: Exclusion 2) |  |  |  | 313 nM | 383 nM |  |
| CAGUACAGAGGAUAUACAUGAGGAUCACCCAUGUGUUUCAGCUAGGAGACUAGCGAAAGUAGAAGGCUGUACUU [salish99_ex3_r4_002] (Eterna round: R97, puzzle: Exclusion 3) |  |  |  | 23 nM | 11.3 nM |  |
| CAGUACUGAGGAUAUACAUGAGGAUCACCCAUGUGAGAAAUACUAGUGAGGUCGAUUAGUAGAAGGCAGUACUG [Mat - Exclusion 3 - Eli Mod - D31] (Eterna round: R97, puzzle: Exclusion 3) |  |  |  | 761 nM | 35.4 nM |  |
| CAGUACUGAGGAUAUACAUGAGGAUCACCCAUGUGUACCAGCUAGGAUACUAGCAAAAGUAGAAGGCAGUACUG [Mat - Exclusion 3 - Eli Mod - D21] (Eterna round: R97, puzzle: Exclusion 3) |  |  |  | 31.2 nM | 19.5 nM |  |

| Sequence | apparent KD of MS2 coat protein [1] | apparent KD of MS2 coat protein [2] | apparent KD of MS2 coat protein [3] | apparent KD of MS2 coat protein (input ligand: FMN 200 uM) | apparent KD of MS2 coat protein (input ligand: none) | apparent KD of MS2 coat protein [4] |
| --- | --- | --- | --- | --- | --- | --- |
| CAGUACUGAGGAUAUACAUGAGGAUCACCCAUGUGUCCCAGCUAGGAUACUAGCAAAGGUAGAAGGCAGUACUG [Mat - Exclusion 3 - Eli Mod - D15] (Eterna round: R97, puzzle: Exclusion 3) |  |  |  | 945 nM | 39.2 nM |  |
| CAGUACUGAGGAUAUACAUGAGGAUCACCCAUGUGUCCCGGCUAGGAAACUAGCAAAAGUAGAAGGCAGUACUG [Fiskers Ex 3 828 mod 2] (Eterna round: R96, puzzle: Exclusion 3) |  |  |  | 494 nM | 24.1 nM | 21.6 nM |
| CAGUACUGAGGAUAUACAUGAGGAUCACCCAUGUGUCCCGGCUAGGAAACUAGCAAAAGUAGAAGGCAGUACUG [Fiskers Ex 3 828 mod 2] (puzzle: Exclusion 3) |  | 25.1 nM |  |  |  |  |
| CAGUACUGAGGAUAUACAUGAGGAUCACCCAUGUGUGUGAAUUUUAUGUGGUCGUAAUGUAGAAGGCAGUACUG [JR_Ex3_Sub027] (Eterna round: R97, puzzle: Exclusion 3) |  |  |  | 407 nM | 86.3 nM |  |
| CAGUACUGAGGAUAUACAUGAGGAUCACCCAUGUGUGUGAGAAUUGUAUGAAUGUUAUGUAGAAGGCGGUGCUG [JR_Ex3_Sub033] (Eterna round: R97, puzzle: Exclusion 3) |  |  |  | 143 nM | 765 nM |  |
| CAGUACUGAGGAUAUACAUGAGGAUCACCCAUGUGUUCCAGCUAGGAAACUAGCGAAAGUAGAAGGCAGUACUG [salish99_ex3_r3_068] (Eterna round: R96, puzzle: Exclusion 3) |  |  |  | 562 nM | 24.6 nM | 19.9 nM |
| CAGUACUGAGGAUAUACAUGAGGAUCACCCAUGUGUUCCAGCUAGGAAACUAGCGAAAGUAGAAGGCAGUACUG [salish99_ex3_r3_068] (puzzle: Exclusion 3) |  | 22.9 nM |  |  |  |  |
| CAGUACUGAGGAUAUACAUGAGGAUCACCCAUGUGUUCCAGCUAGGAAACUUGCAAAAGUAGAAGGCAGUACUG [salish99_ex3_r3_093x] (puzzle: Exclusion 3) |  | 11.9 nM |  |  |  |  |
| CAUACACAUGAGGAUCACCCAUGUGAGGAUAUGCGUACGUUGUCCGUAGGCGACGUGCGCAGAAGGCGCGUGAG [JL-ex1-3.14 Eli mod] (puzzle: Exclusion 1) |  | 45.3 nM |  |  |  |  |
| CAUAGUCUAGGAUAUUCACCUCUAUACAUGAGGAUCACCCAUGUCAAUGGCAGAUGACCAGAAGAAGGAGAAGUGG [Eternabot (L1) Solution 16] (Eterna round: R97, puzzle: Exclusion 5) |  |  |  | 90.2 nM | 84.8 nM |  |
| CAUAGUUACUCAGGAUAUACUACAUGAGGAUCACCCAUGUAAUAAAUGAGAAUUUCGAAUGUAUAGUAGAAGGGAGAAAUCUAC [Ostracism 56 - Jieux - Exclusion NG 2] (Eterna round: R96, puzzle: Exclusion NG 2) |  |  |  | 18.3 nM | 23.8 nM | 14.7 nM |
| CAUAGUUACUCAGGAUAUCAUACAUGAGGAUCACCCAUGUAAUAAAUGAGAAUUUCGAAUGUAUAUGAGAAGGGAGAAAUCUAC [Ostracism 59 - Jieux - Exclusion NG 2] (Eterna round: R96, puzzle: Exclusion NG 2) |  |  |  | 69.2 nM | 22.6 nM | 13.4 nM |
| CAUAUAGUAGUCAGGAUAUGCGAAGAGAGAAGGAAGUAGAAGGGACAUGAGGAUCACCCAUGUAUAUUGUAAAG [EX-4 Malc #3] (puzzle: Brourd's mod of Exclusion 4) | 29.6 nM | 28.9 nM | 28.4 nM |  |  |  |
| CAUCACUGCUAGGAUAUCGAGUCGGAGAAUACUUGAGAAGGAGCUACAUGAGGAUCACCCAUGUCCUCCGCGAU [Eternabot (L2) Solution 72] (Eterna round: R97, puzzle: Exclusion 6) |  |  |  | 47.3 nM | 18.8 nM |  |
| CAUCAGGGAGGAUAUACAUAACUAAAAGGCUAGCAGUCCGUACAUGAGGAUCACCCAUGUAGAAGGCCCGAGUA [EX2 B.6] (Eterna round: R97, puzzle: Exclusion 2) |  |  |  | 46.9 nM | 20 nM |  |
| CAUGAAGACAAGGAUAUCCGAAUGACGUAAGAAGGAGAAGGUGUCACAUGAGGAUCACCCAUGUGGGAUCUCUG [EX6 B.15] (Eterna round: R97, puzzle: Exclusion 6) |  |  |  | 138 nM | 23.9 nM |  |
| CAUGAGGUAGGAUAUACGAUAAUAUAGGGUAGAUAUAUAACACAUGAGGAUCACCCAUGUAGAAGGACCAGUAC [Mat - Exclusion 2 - Mod of my Tesla design - D68] (puzzle: Exclusion 2) | 95.7 nM | 35.9 nM | 34.4 nM |  |  |  |
